Data reported in patent publication US12214046B2, “Protein-loaded PLGA nanospheres” (West Virginia University Board of Governors on behalf of …, priority 2019, dated 2025).

Assay: In vivo induction of free IL-12 toxicity in healthy mice (blood immunophenotyping by flow cytometry)
Design: species or system BALB/c mice
Details: 100 ng or 100 ug retro-orbital, baseline vs 48 h
Protocol: Red blood cells were lysed with Red Blood Cell (RBC) Lysis Solution (Miltenyi Biotec, Auburn, CA). Single cell suspensions were split and incubated with optimized lymphoid (L) and myeloid (M) antibody panels according to the manufacturer's instructions: a minimum of 1×104 events were analyzed for each sample.
Two groups of four BALB/c mice (two female and two male per group) were cheek bled by piercing the facial venous plexus with a sterile 4 mm Goldenrod Animal Lancet (Braintree Scientific. Braintree. MA) to gather 100 μL whole blood for baseline immunophenotyping. Immediately following cheek bleeds, each group was given a retro-orbital (r.o.) injection of either a low (100 ng) or high (100 ug) dose of free recombinant mouse (rm) IL-12 (eBiolegend. San Diego. CA) with 0.1% mouse serum albumin (MSA. Sigma. St. Louis, MO) in 150 μL DPBS. At 24 and 48 hours following r.o. injections, mice underwent additional cheek bleeds for immunophenotyping.
Twelve BALB/c mice were cheek bled for 100 μL whole blood (baseline) before being dosed with either 100 ng (L: low dose) or 100 ug (H: high dose) of recombinant mouse (rm) IL-12 via retro-orbital (r.o.) injection. Mice were cheek bled again at 24 and 48 hours (48 h), and blood samples were immunophenotyped via flow cytometry. CD8^−CD4^+ helper T cells (left, white). CD4^−CD8^+ cytotoxic T cells (middle, gray), and CD8^−CD4^+FOXP3^+CD25^+/− regulatory T cells (right. black) were assessed for the extent of PD1^+TIM-3^+ positivity, which can be indicative of exhaustion. Shown in FIG. 17 are T cell data from baseline and 48 h time points. Individual bars (top half) represent group averages+SD. […] Baseline blood samples (n=4:2 male and 2 female per group) were compared to 48 h samples using unpaired two-tailed/tests, * p<0.05, ** p<0.01. *** p<0.001.
Twelve BALB/c mice were cheek bled for 100 μL whole blood (baseline) before being dosed with either 100 ng (L: low dose) or 100 ug (H: high dose) of recombinant mouse (rm) IL-12 via retro-orbital (r.o.) injection. […]

B1: IL-12: Recombinant mouse IL-12 (p70), immunostimulatory cytokine, purchased from Biolegend (protein, UniProt P43431 23-215; P43432 23-335, looked up)
Interleukin-12 subunit alpha: RVIPVSGPARCLSQSRNLLKTTDDMVKTAREKLKHYSCTAEDIDHEDITRDQTSTLKTCLPLELHKNESCLATRETSSTTRGSCLPPQKTSLMMTLCLGSIYEDLKMYQTEFQAINAALQNHNHQQIILDKGMLVAIDELMQSLNHNGETLRQKPPVGEADPYRVKMKLCILLHAFSTRVVTINRVMGYLSSA
Interleukin-12 subunit beta: MWELEKDVYVVEVDWTPDAPGETVNLTCDTPEEDDITWTSDQRHGVIGSGKTLTITVKEFLDAGQYTCHKGGETLSHSHLLLHKKENGIWSTEILKNFKNKTFLKCEAPNYSGRFTCSWLVQRNMDLKFNIKSSSSSPDSRAVTCGMASLSAEKVTLDQRDYEKYSVSCQEDVTCPTAEETLPIELALEARQQNKYENYSTSFFIRDIIKPDPPKNLQMKPLKNSQVEVSWEYPDSWSTPHSYFSLKFFVRIQRKKEKMKETEEGCNQKGAFLVEKTSTEVQCKGGNVCVQAQDRYYNSSCSKWACVPCRVRS
effect on PMN-MDSC in peripheral blood: Polymorphonuclear-Myeloid-Derived Suppressor Cell (PMN-MDSC) Myelocytosis | effect on T lymphocyte subsets in peripheral blood (PD1+TIM-3+ positivity): T cell exhaustion of helper, cytotoxic, and regulatory T lymphocyte subsets | effect on circulating Natural Killer (NK) cells: Decrease of Circulating Natural Killer (NK) Cells
